Data as given in patent US20030186853A1, “Novel corticotropin-releasing hormone analogs” (The Regents of the University of California, Office of …, published 2003).
Like-named read-outs stand apart in the source and are kept apart here. Values belong to the molecule of their own block, whether it stands above or below them. Non-standard residues stand in square brackets, D forms with d. No end group written: not given here.

What was measured:
CRH1 receptor [1] = target: T1, CRH1 receptor (mouse, UniProt P35347)
CRH1 receptor [2] = target: T1, CRH1 receptor; test: cell-based or functional assay

EC50, inhibition of proliferation of Cloudman melanoma cells (cell count) (CRH1 receptor [1]): 0.36 picomolar
Molecule: acetyl-cyclo(30-33)[D-Phe^12, Nle^18, D-Glu^20, Nle^21, Glu^30, D-Ala^32]-urotensin I(4-41) (peptide)

EC50, inhibition of proliferation of Cloudman melanoma cells (cell count) (CRH1 receptor [2]): 9.5 picomolar
B1: Urocortin (human) (ligand)
peptide: DNPSLSIDLTFHLLRTLLELARTQSQRERAEQNRIIFDSV-NH2

EC50, inhibition of proliferation of Cloudman melanoma cells (cell count) (CRH1 receptor [2]): 16 picomolar
B2: [D-Glu^20]-CRH (peptide)
peptide: SEEPPISLDLTFHLLREVL[dE]MARAEQLAQQAHSNRKLMEII-NH2

EC50, inhibition of proliferation of Cloudman melanoma cells (cell count) (CRH1 receptor [2]): 8.6 picomolar
B3: Corticotropin-releasing hormone (CRH), human/rat (ligand)
peptide: SEEPPISLDLTFHLLREVLEMARAEQLAQQAHSNRKLMEII-NH2

EC50, inhibition of proliferation of Cloudman melanoma cells (cell count) (CRH1 receptor [2]): 82 picomolar
B4: [D-Pro^5]-CRH (peptide)
peptide: SEEP[dP]ISLDLTFHLLREVLEMARAEQLAQQAHSNRKLMEII-NH2
